Test results from the supplement of paper PMC10126150.
± gives the standard deviation of the averaged measurements.

Test system: ATP
Test: switch fluorescence ratio, 500 uM ATP over buffer (Cy3 cluster intensity, sum of 5 cycles each) (fold (ratio)); higher = stronger signal-on switching upon ATP binding; sequences stand for … in TCGTCGGCAGCGTCAGATGTGTATAAGAGACAGTTTTTTTTTTTTTTTTTTTTTTTTT…TC
Conditions: aptamer strand: ATP DNA aptamer (quencher-CACCTGGGGGAGTATTGCGGAGGAAGG + anchor), 100 nM annealed; ATP concentration: 500 uM
How it was run: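 Switching-strand clusters labelled with Cy3 on a modified Illumina MiSeq flow-cell were annealed to 100 nM quencher-labelled ATP aptamer, imaged in selection buffer, and re-imaged after 15 min with 500 uM ATP at 22 °C. This was done over five cycles with NaOH stripping and re-annealing in between. The fluorescence ratio is summed target-cycle over summed buffer-cycle Cy3 intensity per cluster, averaged per switch-domain sequence, excluding clusters outside 100-1000 RFU.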
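Note: ATP exposure 15 min at 22 °C before imaging.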

Row | Sequence | switch fluorescence ratio
1 | GCGGCTGTGG | 0.9861 ± 0.008
2 | ACCCACTGGG | 1.06 ± 0.03
3 | AGTGTTACG | 1.01 ± 0.04
4 | GCCGGGAGTC | 1 ± 0.02
5 | CGGCTCTCTT | 1.009 ± 0.0017
6 | GTTCGACGGC | 1.05 ± 0.095
7 | GGGGACCGGC | 0.954 ± 0.041
8 | TTGGGTCCAA | 0.983 ± 0.017
9 | TTCTGTGGGA | 1.002 ± 0.006
10 | ATTATATCGG | 0.9981 ± 0.0031
11 | TACAAGTTCT | 0.9814 ± 0.0042
12 | GCCGCCGGGG | 0.996 ± 0.032
13 | CAGGTTTAAA | 0.992 ± 0.034
14 | ACCTATTCGT | 1.054 ± 0.0047
15 | TGAGGTTGTC | 0.981 ± 0.09
16 | CTCAAGGGGC | 1.14 ± 0.11
17 | TATGTTTGGC | 1 ± 0.04
18 | ACCGGGAAAG | 1.062 ± 0.0096
19 | CATGAAGCTG | 1.02 ± 0.018
20 | TGGATTAAGG | 1.03 ± 0.033
21 | GAGGGGGTGC | 1.04 ± 0.069
22 | GTGGTCGGGT | 0.974 ± 0.044
23 | GAGAAAGCAG | 0.977 ± 0.025
24 | GTGCATGTGG | 0.9701 ± 0.0056
25 | GGGGTAACGT | 0.983 ± 0.02
26 | AAGGGTGGGG | 1 ± 0.058

Row | Sequence | switch fluorescence ratio
27 | GAGGCAGGGG | 1.04 ± 0.072
28 | TCGGTATTTG | 0.967 ± 0.037
29 | TGTAGAAAGG | 1.03 ± 0.046
30 | GATTCCTATC | 0.996 ± 0.039
31 | TGTGGGCGGA | 1.001 ± 0.0079
32 | TTTTCCATTT | 0.99 ± 0.023
33 | TTTTCGTCCT | 1.18 ± 0.18
34 | TGACGGGCGG | 1 ± 0.015
35 | CCGTGAGTTT | 1.07 ± 0.04
36 | TGGCAAAGTT | 0.985 ± 0.013
37 | CTGTGAAAAA | 1.09 ± 0.043
38 | TGTAAAAAAA | 1.04 ± 0.044
39 | TATGCGGGGC | 1.1 ± 0.12
40 | GGTCGTAGGG | 1.01 ± 0.016
41 | GAGAGGTCGG | 1.012 ± 0.0016
42 | TGACTATGAT | 0.998 ± 0.015
43 | ATTTGGAGGG | 0.969 ± 0.0034
44 | CGGGTTAGTA | 1.02 ± 0.042
45 | GCTTGGTCAT | 0.9714 ± 0.0035
46 | CGTTTACCTG | 0.983 ± 0.0042
47 | AGTTTCGGCG | 1 ± 0.02
48 | TCTGGGGGAC | 1.05 ± 0.015
49 | CATAATCGCA | 1.04 ± 0.021
50 | TTGGAGGGGA | 1.01 ± 0.018
51 | GGAGTCCAGG | 1.15 ± 0.032
52 | TTTGTTCATT | 0.953 ± 0.019

Row | Sequence | switch fluorescence ratio
53 | CGCCCCAGGA | 1.85 ± 1.1
54 | GGGGCATAAG | 1.01 ± 0.013
55 | AATTCCTCTT | 1.05 ± 0.048
56 | GGGTTAATTT | 1 ± 0.028
57 | AGTGTCGTTT | 0.991 ± 0.02
58 | TAGTCGGTGG | 0.9978 ± 0.0032
59 | AATGGTGGCT | 1.11 ± 0.099
60 | TATATATTTG | 1.03 ± 0.029
61 | GAGTTTGTGG | 0.998 ± 0.024
62 | AGATTCTCGA | 0.998 ± 0.011
63 | CTCTACGCCG | 0.9875 ± 0.0053
64 | GCAATGGTGG | 1.04 ± 0.035
65 | TGGCTATTGT | 0.9824 ± 0.0044
66 | CGTGTTTGTG | 0.999 ± 0.067
67 | AATGGTTTGC | 1.13 ± 0.23
68 | GATGGGAAGT | 1.01 ± 0.024
69 | AAAATGGCGT | 0.9694 ± 0.004
70 | GTGAAGGGGT | 1 ± 0.047
71 | TGGGTTATGT | 0.992 ± 0.019
72 | TCCTACTACG | 1.08 ± 0.026
73 | CTGTTAGGAT | 0.99 ± 0.028
74 | TTGAGGGGGA | 1.01 ± 0.014
75 | TACGGTTCGC | 1.02 ± 0.019
76 | GTGAGAATGT | 1.02 ± 0.02
77 | GGCTCTTCGG | 0.989 ± 0.04
78 | ATCGCATGGG | 1.03 ± 0.013

Row | Sequence | switch fluorescence ratio
79 | CTGTCTGAGT | 0.9632 ± 0.007
80 | ATGGGGTTCG | 0.993 ± 0.035
81 | GGCGTTTATC | 0.9746 ± 0.0018
82 | TTATGGTACA | 0.98 ± 0.019
83 | AGTCGGGGGC | 1.03 ± 0.04
84 | TAGCCAGGGG | 1.2 ± 0.076
85 | GCGCTGACGT | 0.9932 ± 0.0052
86 | TGGTCGTCTT | 1.05 ± 0.035
87 | ACTGAGGAAA | 1.01 ± 0.046
88 | TTCCCTTTTT | 1.03 ± 0.019
89 | TGATTGAGGG | 0.9572 ± 0.0056
90 | TATGTTTTAT | 1.02 ± 0.048
91 | TCGACTCAGG | 1.05 ± 0.028
92 | GGCCCGATTT | 1.01 ± 0.024
93 | TCGGGTCGCC | 1 ± 0.044
94 | TATTGTGGTT | 1 ± 0.031
95 | GACTGGATGG | 0.98 ± 0.011
96 | GGTGGAGGAG | 0.979 ± 0.023
97 | CATATTTTAG | 0.989 ± 0.032
98 | CCTCGGTTTT | 1.24 ± 0.013
99 | GGGTAAGGGT | 1.13 ± 0.37
100 | TGGTACGGTC | 0.927 ± 0.041
101 | CGTATGGGTG | 1.02 ± 0.04
102 | CGCGTAAAAT | 1.04 ± 0.035
103 | AGTAGAAATG | 0.991 ± 0.012
104 | TTAAGCCTTT | 1.02 ± 0.034

Row | Sequence | switch fluorescence ratio
105 | ATTCAGTCAT | 0.9901 ± 0.0021
106 | TTTTTTGTGA | 1 ± 0.08
107 | TACAAAGGGA | 1.01 ± 0.027
108 | GATTTAATCC | 0.974 ± 0.032
109 | CCAGGTTTGG | 1.03 ± 0.024
110 | GGGGTGGTAG | 1.01 ± 0.012
111 | AATGATTGGG | 0.977 ± 0.02
112 | AAACAGGTTG | 1.05 ± 0.019
113 | TCGTTGGTCC | 1.026 ± 0.0048
114 | AAATGACGGC | 0.988 ± 0.15
115 | AGTATTCTG | 0.961 ± 0.04
116 | CGCCATTTTT | 0.9822 ± 0.0022
117 | TAAAGTGGCT | 0.985 ± 0.03
118 | ATTTTGAGAC | 0.995 ± 0.026
119 | CAGTTGTGGT | 0.998 ± 0.011
120 | GCCAGGGTGG | 1.01 ± 0.039
121 | TAAATTGATA | 0.9924 ± 0.0055
122 | CTGGGTGTAT | 0.984 ± 0.063
123 | ATTGTATGGG | 0.9744 ± 0.0071
124 | ATTATAGTTG | 1.039 ± 0.0094
125 | ATGTGTGAGG | 1.01 ± 0.014
126 | TAAAGGCCGT | 1.01 ± 0.018
127 | GTTGACAGCT | 1 ± 0.015
128 | GGAGTTTAAA | 0.999 ± 0.043
129 | CATGTTGCTG | 1.09 ± 0.029
130 | AATGGGGCCT | 1.03 ± 0.02

Row | Sequence | switch fluorescence ratio
131 | GATCATTCTT | 1.01 ± 0.016
132 | ACCATTGGTG | 1.12 ± 0.013
133 | TGAGGGGTAA | 0.993 ± 0.042
134 | AAGCGTTAGC | 1.01 ± 0.014
135 | AATGTGTCCC | 0.991 ± 0.041
136 | ATTAGGGGGA | 1.03 ± 0.014
137 | GGGGGGGCCA | 1.01 ± 0.041
138 | TCTTGGAACG | 0.998 ± 0.015
139 | CTTGGAGGAA | 0.999 ± 0.044
140 | GAAGTGGGTT | 0.989 ± 0.024
141 | TAAGCTTTTT | 1 ± 0.033
142 | CTTCGGGGTT | 1.03 ± 0.035
143 | CAACTCTTTT | 0.998 ± 0.038
144 | GCATCTCAGC | 0.991 ± 0.038
145 | ATTAAACAG | 1.05 ± 0.07
146 | TTGGGTGGGG | 1 ± 0.049
147 | TGCTTGAGTC | 1.009 ± 0.0027
148 | ATTTAAAAGT | 0.991 ± 0.037
149 | TTCGGGAGGT | 1.05 ± 0.13
150 | CTTCATAAGT | 0.983 ± 0.022
151 | TTTTCATGGT | 1.01 ± 0.035
152 | TGTGATTGTT | 1.02 ± 0.013
153 | ATGTGCTTAG | 1.04 ± 0.084
